Results taken from publication PMC9482650, “Quantitative fragmentomics allow affinity mapping of interactomes” (Nature Communications, 2022).

T1: TJP3_3, O95049
T1 sequence (O95049 375-456, limits assumed, looked up): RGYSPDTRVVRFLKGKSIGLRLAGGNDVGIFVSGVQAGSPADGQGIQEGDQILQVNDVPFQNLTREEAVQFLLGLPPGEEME

T2: GRIP1_5, Q9Y3R0
T2 sequence (Q9Y3R0 568-668, limits assumed, looked up): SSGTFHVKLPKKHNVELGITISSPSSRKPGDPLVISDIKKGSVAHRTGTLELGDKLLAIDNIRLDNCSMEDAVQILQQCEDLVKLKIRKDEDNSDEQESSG

T3: CARD11, Q9BXL7
T3 sequence (Q9BXL7 662-765, limits assumed, looked up): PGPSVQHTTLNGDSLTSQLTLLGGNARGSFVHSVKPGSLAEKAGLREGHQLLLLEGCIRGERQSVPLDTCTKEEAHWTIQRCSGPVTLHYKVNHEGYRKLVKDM

T4: MPP7, Q5T2T1
T4 sequence (Q5T2T1 134-230, limits assumed, looked up): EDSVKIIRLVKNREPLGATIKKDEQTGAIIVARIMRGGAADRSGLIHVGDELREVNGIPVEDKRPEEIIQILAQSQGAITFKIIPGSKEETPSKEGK

T5: GRIP1_2, Q9Y3R0
T5 sequence (Q9Y3R0 145-248, limits assumed, looked up): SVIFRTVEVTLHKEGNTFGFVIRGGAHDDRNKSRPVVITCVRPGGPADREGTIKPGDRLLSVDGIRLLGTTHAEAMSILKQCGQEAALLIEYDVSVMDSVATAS

T6: DFNB31_3, Q9P202
T6 sequence (Q9P202 811-907, limits assumed, looked up): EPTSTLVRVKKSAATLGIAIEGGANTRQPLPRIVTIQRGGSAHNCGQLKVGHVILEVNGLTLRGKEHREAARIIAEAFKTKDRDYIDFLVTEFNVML

T7: SYNJ2BP, P57105
T7 sequence (P57105 8-110, limits assumed, looked up): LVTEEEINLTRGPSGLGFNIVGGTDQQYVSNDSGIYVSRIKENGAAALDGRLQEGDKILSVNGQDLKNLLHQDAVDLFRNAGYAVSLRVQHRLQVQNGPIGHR

T8: APBA1_2, Q02410
T8 sequence (Q02410 742-832, limits assumed, looked up): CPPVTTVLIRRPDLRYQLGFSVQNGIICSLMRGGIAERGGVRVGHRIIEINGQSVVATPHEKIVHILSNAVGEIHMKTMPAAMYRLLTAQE

T9: GRIP1_3, Q9Y3R0
T9 sequence (Q9Y3R0 247-346, limits assumed, looked up): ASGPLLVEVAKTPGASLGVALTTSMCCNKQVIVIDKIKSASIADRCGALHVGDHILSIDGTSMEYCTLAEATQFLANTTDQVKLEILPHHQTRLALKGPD

T10: LIN7C, Q9NUP9
T10 sequence (Q9NUP9 88-185, limits assumed, looked up): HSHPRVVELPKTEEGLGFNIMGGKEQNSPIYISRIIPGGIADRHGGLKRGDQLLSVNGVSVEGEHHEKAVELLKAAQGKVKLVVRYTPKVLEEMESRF


The binders below were run against TJP2_1, Q9UDY2 (assay: holdup assay). Details: plain residues with an end cap or a label only (N-terminal biotin on a linker: ado-ado).
Set-up: key: below the threshold = too weak to quantify, mostly under pKd 3.1 to 4

Sequence of TJP2_1, Q9UDY2 (Q9UDY2 24-128): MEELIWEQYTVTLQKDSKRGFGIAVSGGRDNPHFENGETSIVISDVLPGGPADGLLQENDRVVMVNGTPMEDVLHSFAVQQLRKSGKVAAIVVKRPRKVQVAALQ

Binder | pKd
IKAIVDLTGL [TRAF2, Q12933] | below the threshold
GSGAVEMESV [AQP6, Q13520] | below the threshold

These binders were tested against SCRIB_1, Q14160 (assay: holdup assay). Details: plain residues with an end cap or a label only (N-terminal biotin on a linker: ado-ado).
Set-up: key: below the threshold = too weak to quantify, mostly under pKd 3.1 to 4

Sequence of SCRIB_1, Q14160 (Q14160 718-814): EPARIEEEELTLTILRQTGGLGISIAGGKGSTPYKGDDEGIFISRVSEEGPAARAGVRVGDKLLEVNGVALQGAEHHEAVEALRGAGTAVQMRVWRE

Binder | pKd
IKAIVDLTGL [TRAF2, Q12933] | below the threshold
GSGAVEMESV [AQP6, Q13520] | below the threshold

These binders were tested against HTRA2, O43464 (assay: holdup assay). Details: plain residues with an end cap or a label only (N-terminal biotin on a linker: ado-ado).
Set-up: key: below the threshold = too weak to quantify, mostly under pKd 3.1 to 4

Sequence of HTRA2, O43464 (O43464 355-458): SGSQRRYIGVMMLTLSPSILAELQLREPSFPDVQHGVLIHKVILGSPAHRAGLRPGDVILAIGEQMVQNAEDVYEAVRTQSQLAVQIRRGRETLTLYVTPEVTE

Binder | pKd
IKAIVDLTGL [TRAF2, Q12933] | below the threshold
GSGAVEMESV [AQP6, Q13520] | below the threshold

These binders were tested against LAP2, Q96RT1 (assay: holdup assay). Details: plain residues with an end cap or a label only (N-terminal biotin on a linker: ado-ado).
Set-up: key: below the threshold = too weak to quantify, mostly under pKd 3.1 to 4

Sequence of LAP2, Q96RT1 (Q96RT1 other isoform, or with tags, fused parts or gaps): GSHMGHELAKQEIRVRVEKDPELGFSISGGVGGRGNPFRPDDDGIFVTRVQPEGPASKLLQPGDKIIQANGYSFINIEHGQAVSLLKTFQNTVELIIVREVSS

Binder | pKd
IKAIVDLTGL [TRAF2, Q12933] | below the threshold
GSGAVEMESV [AQP6, Q13520] | below the threshold

These binders were tested against T1, TJP3_3, O95049 (assay: holdup assay). Details: plain residues with an end cap or a label only (N-terminal biotin on a linker: ado-ado).
Set-up: key: below the threshold = too weak to quantify, mostly under pKd 3.1 to 4

Binder | pKd
IKAIVDLTGL [TRAF2, Q12933] | below the threshold
GSGAVEMESV [AQP6, Q13520] | below the threshold

Each binder was assayed against GRID2IP_1, A4D2P6 (assay: holdup assay). Details: plain residues with an end cap or a label only (N-terminal biotin on a linker: ado-ado).
Set-up: key: below the threshold = too weak to quantify, mostly under pKd 3.1 to 4

Sequence of GRID2IP_1, A4D2P6 (A4D2P6 1-87): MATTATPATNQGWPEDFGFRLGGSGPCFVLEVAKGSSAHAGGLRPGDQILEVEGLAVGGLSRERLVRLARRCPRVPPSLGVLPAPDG

Binder | pKd
IKAIVDLTGL [TRAF2, Q12933] | below the threshold
GSGAVEMESV [AQP6, Q13520] | below the threshold

The binders below were run against T2, GRIP1_5, Q9Y3R0 (assay: holdup assay). Details: plain residues with an end cap or a label only (N-terminal biotin on a linker: ado-ado).
Set-up: key: below the threshold = too weak to quantify, mostly under pKd 3.1 to 4

Binder | pKd
IKAIVDLTGL [TRAF2, Q12933] | below the threshold
GSGAVEMESV [AQP6, Q13520] | below the threshold

The binders below were run against MAGI2_4, Q86UL8 (assay: holdup assay). Details: plain residues with an end cap or a label only (N-terminal biotin on a linker: ado-ado).
Set-up: key: below the threshold = too weak to quantify, mostly under pKd 3.1 to 4

Sequence of MAGI2_4, Q86UL8 (Q86UL8 772-865): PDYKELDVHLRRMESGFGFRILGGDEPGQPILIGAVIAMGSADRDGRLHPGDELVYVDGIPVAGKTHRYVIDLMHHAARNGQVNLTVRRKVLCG

Binder | pKd
IKAIVDLTGL [TRAF2, Q12933] | below the threshold
GSGAVEMESV [AQP6, Q13520] | below the threshold

What follows are binders tested against AHNAK1, Q09666 (assay: holdup assay). Details: plain residues with an end cap or a label only (N-terminal biotin on a linker: ado-ado).
Set-up: key: below the threshold = too weak to quantify, mostly under pKd 3.1 to 4

Sequence of AHNAK1, Q09666 (Q09666 4-100): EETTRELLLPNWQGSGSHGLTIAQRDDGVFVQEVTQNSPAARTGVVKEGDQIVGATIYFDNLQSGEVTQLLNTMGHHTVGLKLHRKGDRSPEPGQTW

Binder | pKd
IKAIVDLTGL [TRAF2, Q12933] | below the threshold
GSGAVEMESV [AQP6, Q13520] | below the threshold

These binders were tested against T3, CARD11, Q9BXL7 (assay: holdup assay). Details: plain residues with an end cap or a label only (N-terminal biotin on a linker: ado-ado).
Set-up: key: below the threshold = too weak to quantify, mostly under pKd 3.1 to 4

Binder | pKd
IKAIVDLTGL [TRAF2, Q12933] | below the threshold
GSGAVEMESV [AQP6, Q13520] | below the threshold

What follows are binders tested against T4, MPP7, Q5T2T1 (assay: holdup assay). Details: plain residues with an end cap or a label only (N-terminal biotin on a linker: ado-ado).
Set-up: key: below the threshold = too weak to quantify, mostly under pKd 3.1 to 4

Binder | pKd
IKAIVDLTGL [TRAF2, Q12933] | below the threshold
GSGAVEMESV [AQP6, Q13520] | below the threshold

These binders were tested against T5, GRIP1_2, Q9Y3R0 (assay: holdup assay). Details: plain residues with an end cap or a label only (N-terminal biotin on a linker: ado-ado).
Set-up: key: below the threshold = too weak to quantify, mostly under pKd 3.1 to 4

Binder | pKd
IKAIVDLTGL [TRAF2, Q12933] | below the threshold
GSGAVEMESV [AQP6, Q13520] | below the threshold

Each binder was assayed against MAGI2_2, Q86UL8 (assay: holdup assay). Details: plain residues with an end cap or a label only (N-terminal biotin on a linker: ado-ado).
Set-up: key: below the threshold = too weak to quantify, mostly under pKd 3.1 to 4

Sequence of MAGI2_2, Q86UL8 (Q86UL8 410-522): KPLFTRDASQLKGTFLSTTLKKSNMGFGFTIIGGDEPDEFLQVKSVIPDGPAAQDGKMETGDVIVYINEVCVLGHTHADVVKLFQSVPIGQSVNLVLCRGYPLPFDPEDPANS

Binder | pKd
IKAIVDLTGL [TRAF2, Q12933] | below the threshold
GSGAVEMESV [AQP6, Q13520] | below the threshold

The binders below were run against SNX27, Q96L92 (assay: holdup assay). Details: plain residues with an end cap or a label only (N-terminal biotin on a linker: ado-ado).
Set-up: key: below the threshold = too weak to quantify, mostly under pKd 3.1 to 4

Binder | pKd
IKAIVDLTGL [TRAF2, Q12933] | 3.51
GSGAVEMESV [AQP6, Q13520] | 3.7

Each binder was assayed against DLG4_3, P78352 (assay: holdup assay). Details: plain residues with an end cap or a label only (N-terminal biotin on a linker: ado-ado).
Set-up: key: below the threshold = too weak to quantify, mostly under pKd 3.1 to 4

Sequence of DLG4_3, P78352 (P78352 306-403): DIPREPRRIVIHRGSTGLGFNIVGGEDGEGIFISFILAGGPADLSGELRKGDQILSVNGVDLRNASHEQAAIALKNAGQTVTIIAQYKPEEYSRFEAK

Binder | pKd
IKAIVDLTGL [TRAF2, Q12933] | below the threshold
GSGAVEMESV [AQP6, Q13520] | below the threshold

Each binder was assayed against T6, DFNB31_3, Q9P202 (assay: holdup assay). Details: plain residues with an end cap or a label only (N-terminal biotin on a linker: ado-ado).
Set-up: key: below the threshold = too weak to quantify, mostly under pKd 3.1 to 4

Binder | pKd
IKAIVDLTGL [TRAF2, Q12933] | below the threshold
GSGAVEMESV [AQP6, Q13520] | below the threshold

These binders were tested against T7, SYNJ2BP, P57105 (assay: holdup assay). Details: plain residues with an end cap or a label only (N-terminal biotin on a linker: ado-ado).
Set-up: key: below the threshold = too weak to quantify, mostly under pKd 3.1 to 4

Binder | pKd
IKAIVDLTGL [TRAF2, Q12933] | below the threshold
GSGAVEMESV [AQP6, Q13520] | below the threshold

Each binder was assayed against T8, APBA1_2, Q02410 (assay: holdup assay). Details: plain residues with an end cap or a label only (N-terminal biotin on a linker: ado-ado).
Set-up: key: below the threshold = too weak to quantify, mostly under pKd 3.1 to 4

Binder | pKd
IKAIVDLTGL [TRAF2, Q12933] | below the threshold
GSGAVEMESV [AQP6, Q13520] | 3.58

Each binder was assayed against PDZRN4_1, Q6ZMN7 (assay: holdup assay). Details: plain residues with an end cap or a label only (N-terminal biotin on a linker: ado-ado).
Set-up: key: below the threshold = too weak to quantify, mostly under pKd 3.1 to 4

Sequence of PDZRN4_1, Q6ZMN7 (Q6ZMN7 213-318): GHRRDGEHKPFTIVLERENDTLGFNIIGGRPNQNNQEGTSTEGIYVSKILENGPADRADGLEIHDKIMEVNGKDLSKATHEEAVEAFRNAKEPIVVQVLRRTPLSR

Binder | pKd
IKAIVDLTGL [TRAF2, Q12933] | below the threshold
GSGAVEMESV [AQP6, Q13520] | below the threshold

What follows are binders tested against FRMPD3, Q5JV73 (assay: holdup assay). Details: plain residues with an end cap or a label only (N-terminal biotin on a linker: ado-ado).
Set-up: key: below the threshold = too weak to quantify, mostly under pKd 3.1 to 4

Sequence of FRMPD3, Q5JV73 (Q5JV73 12-100): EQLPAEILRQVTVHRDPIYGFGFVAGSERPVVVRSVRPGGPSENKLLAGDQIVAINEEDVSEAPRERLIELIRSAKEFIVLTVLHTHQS

Binder | pKd
IKAIVDLTGL [TRAF2, Q12933] | below the threshold
GSGAVEMESV [AQP6, Q13520] | below the threshold

These binders were tested against T9, GRIP1_3, Q9Y3R0 (assay: holdup assay). Details: plain residues with an end cap or a label only (N-terminal biotin on a linker: ado-ado).
Set-up: key: below the threshold = too weak to quantify, mostly under pKd 3.1 to 4

Binder | pKd
IKAIVDLTGL [TRAF2, Q12933] | below the threshold
GSGAVEMESV [AQP6, Q13520] | below the threshold

Each binder was assayed against T10, LIN7C, Q9NUP9 (assay: holdup assay). Details: plain residues with an end cap or a label only (N-terminal biotin on a linker: ado-ado).
Set-up: key: below the threshold = too weak to quantify, mostly under pKd 3.1 to 4

Binder | pKd
IKAIVDLTGL [TRAF2, Q12933] | below the threshold
GSGAVEMESV [AQP6, Q13520] | below the threshold

What follows are binders tested against GORASP2, Q9H8Y8 (assay: holdup assay). Details: plain residues with an end cap or a label only (N-terminal biotin on a linker: ado-ado).
Set-up: key: below the threshold = too weak to quantify, mostly under pKd 3.1 to 4

Binder | pKd
IKAIVDLTGL [TRAF2, Q12933] | below the threshold
GSGAVEMESV [AQP6, Q13520] | below the threshold

Each binder was assayed against DLG1_3, Q12959 (assay: holdup assay). Details: plain residues with an end cap or a label only (N-terminal biotin on a linker: ado-ado).
Set-up: key: below the threshold = too weak to quantify, mostly under pKd 3.1 to 4

Sequence of DLG1_3, Q12959 (Q12959 457-571): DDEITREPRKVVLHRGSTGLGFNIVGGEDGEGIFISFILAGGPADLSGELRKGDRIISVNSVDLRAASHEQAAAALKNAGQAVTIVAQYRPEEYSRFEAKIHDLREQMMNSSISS

Binder | pKd
IKAIVDLTGL [TRAF2, Q12933] | below the threshold
GSGAVEMESV [AQP6, Q13520] | below the threshold

Each binder was assayed against GRIP2_3, Q9C0E4 (assay: holdup assay). Details: plain residues with an end cap or a label only (N-terminal biotin on a linker: ado-ado).
Set-up: key: below the threshold = too weak to quantify, mostly under pKd 3.1 to 4

Sequence of GRIP2_3, Q9C0E4 (Q9C0E4 238-339): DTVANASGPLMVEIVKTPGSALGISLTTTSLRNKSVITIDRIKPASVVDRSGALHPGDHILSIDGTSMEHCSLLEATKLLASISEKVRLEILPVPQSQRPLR

Binder | pKd
IKAIVDLTGL [TRAF2, Q12933] | below the threshold
GSGAVEMESV [AQP6, Q13520] | below the threshold

What follows are binders tested against GRIP2_7, Q9C0E4 (assay: holdup assay). Details: plain residues with an end cap or a label only (N-terminal biotin on a linker: ado-ado).
Set-up: key: below the threshold = too weak to quantify, mostly under pKd 3.1 to 4

Sequence of GRIP2_7, Q9C0E4 (Q9C0E4 934-1023): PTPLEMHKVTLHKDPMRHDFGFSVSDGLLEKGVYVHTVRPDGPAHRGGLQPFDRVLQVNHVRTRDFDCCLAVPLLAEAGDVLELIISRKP

Binder | pKd
IKAIVDLTGL [TRAF2, Q12933] | below the threshold
GSGAVEMESV [AQP6, Q13520] | below the threshold

What follows are binders tested against SCRIB_2, Q14160 (assay: holdup assay). Details: plain residues with an end cap or a label only (N-terminal biotin on a linker: ado-ado).
Set-up: key: below the threshold = too weak to quantify, mostly under pKd 3.1 to 4

Sequence of SCRIB_2, Q14160 (Q14160 857-960): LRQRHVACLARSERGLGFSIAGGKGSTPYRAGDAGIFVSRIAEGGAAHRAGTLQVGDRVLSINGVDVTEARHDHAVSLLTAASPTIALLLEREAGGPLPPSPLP

Binder | pKd
IKAIVDLTGL [TRAF2, Q12933] | below the threshold
GSGAVEMESV [AQP6, Q13520] | below the threshold
